Results as given in US20230000998A1 (OSSIANIX, published 2023).

Columns and labels:
[1] = molecular target: human TrkB receptor (overexpressed on TrkB-NFAT-bla CHO-K1 reporter cells) (human, UniProt Q16620 32-822); test: cell-based or functional assay
[2] = molecular target: T1, human serum albumin (human, UniProt P02768 25-609); test: kinetic ELISA on coated HSA (negative control); ND: not detected
T1 construct: also called HSA; HAS
Experimental: (§1) The TrkB fusion constructs were assessed for binding to recombinant human, mouse, rat and cynomolgus TfR1. […] When these conjugates were compared to a control VNAR-Fc (open circles), no loss of affinity for TrkB(HC2N) (squares) was observed and only minimal loss for TrkB(HV2N) (triangles).
(§2) TfR-1-binding ELISA. Nunc MaxiSorp plates (Thermo Fisher) were coated with 100 μl of 1 μg/ml of purified, recombinant mouse, human, rat or cynomolgus TfR-1, or with human serum albumin (HAS; Sigma) and incubated at 4° C. overnight. Plates were incubated with blocking buffer (2.5% non-fat dry milk in PBS with 0.1% Tween20; “PBST”) for 1 hat room temperature. Antibody or conjugate solutions were incubated in PBST for 30 min. The blocked solutions (100 μl) were transferred to the blocked plates and incubated for 1 h before washing with PBST. After washing, the plates were incubated for 30 min with a goat anti-human Fc-peroxidase antibody diluted 1:5000 (Sigma) in PBST. The plates were washed and developed with SureBlue™ TMB substrate (VWR). The development of the reaction was measured at 370 nm in real time providing data for Vmax analysis. EC50 values were calculated using 4-parametric non-linear regression (Prism).

[3] = molecular target: T2, human TfR-1 (transferrin receptor 1), purified recombinant (human, UniProt P02786 89-760, limits assumed); test: kinetic ELISA on coated recombinant TfR-1 (Vmax at 370 nm); ND: not detected
T2 construct: Coated on ELISA plates at 1 ug/ml; also called hTfR1
T2 sequence (P02786 89-760 limits assumed): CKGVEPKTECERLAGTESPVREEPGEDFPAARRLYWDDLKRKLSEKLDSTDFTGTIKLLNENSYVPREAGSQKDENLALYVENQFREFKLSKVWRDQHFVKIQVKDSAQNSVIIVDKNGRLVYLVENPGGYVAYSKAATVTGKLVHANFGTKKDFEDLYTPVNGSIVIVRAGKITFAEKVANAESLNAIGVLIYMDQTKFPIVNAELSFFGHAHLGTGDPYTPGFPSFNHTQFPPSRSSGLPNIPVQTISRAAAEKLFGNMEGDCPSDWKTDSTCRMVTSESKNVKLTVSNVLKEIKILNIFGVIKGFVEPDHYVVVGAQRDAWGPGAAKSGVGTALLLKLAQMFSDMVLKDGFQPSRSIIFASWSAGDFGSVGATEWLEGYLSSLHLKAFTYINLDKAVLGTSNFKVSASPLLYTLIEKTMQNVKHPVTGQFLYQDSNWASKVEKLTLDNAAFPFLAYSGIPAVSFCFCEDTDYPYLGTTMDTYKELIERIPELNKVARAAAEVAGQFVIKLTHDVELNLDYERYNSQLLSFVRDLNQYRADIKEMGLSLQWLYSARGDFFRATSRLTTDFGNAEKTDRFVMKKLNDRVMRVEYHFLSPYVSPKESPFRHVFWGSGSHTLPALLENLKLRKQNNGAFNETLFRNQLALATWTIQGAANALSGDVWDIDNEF
Experimental: as §1, §2

[4] = molecular target: T3, mouse TfR-1 (transferrin receptor 1), purified recombinant (mouse, UniProt Q62351 89-763, limits assumed); test: as above
T3 construct: also called mTfR1
T3 sequence (Q62351 89-763 limits assumed): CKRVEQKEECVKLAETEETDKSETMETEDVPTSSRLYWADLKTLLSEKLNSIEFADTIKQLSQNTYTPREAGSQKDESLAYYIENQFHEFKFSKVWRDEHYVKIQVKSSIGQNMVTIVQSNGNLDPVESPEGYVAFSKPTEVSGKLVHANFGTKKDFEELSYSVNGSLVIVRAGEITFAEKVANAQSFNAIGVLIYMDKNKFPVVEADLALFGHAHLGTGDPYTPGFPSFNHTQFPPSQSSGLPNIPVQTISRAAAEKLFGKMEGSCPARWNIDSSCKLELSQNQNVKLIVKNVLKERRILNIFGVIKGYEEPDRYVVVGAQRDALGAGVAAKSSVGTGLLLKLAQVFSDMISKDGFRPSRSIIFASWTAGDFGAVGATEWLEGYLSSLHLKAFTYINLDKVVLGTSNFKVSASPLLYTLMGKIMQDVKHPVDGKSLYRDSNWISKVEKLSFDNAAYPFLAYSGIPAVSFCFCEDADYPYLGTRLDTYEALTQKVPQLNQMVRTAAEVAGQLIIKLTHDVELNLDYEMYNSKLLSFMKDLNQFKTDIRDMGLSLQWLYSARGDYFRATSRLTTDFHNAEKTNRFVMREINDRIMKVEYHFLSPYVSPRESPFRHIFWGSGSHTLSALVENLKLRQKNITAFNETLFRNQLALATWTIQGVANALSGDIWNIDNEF
Experimental: as §1, §2

[5] = molecular target: T4, rat TfR-1 (transferrin receptor 1), purified recombinant (rat, UniProt Q99376 89-761, limits assumed); test: as above
T4 construct: also called rTfR1
T4 sequence (Q99376 89-761 limits assumed): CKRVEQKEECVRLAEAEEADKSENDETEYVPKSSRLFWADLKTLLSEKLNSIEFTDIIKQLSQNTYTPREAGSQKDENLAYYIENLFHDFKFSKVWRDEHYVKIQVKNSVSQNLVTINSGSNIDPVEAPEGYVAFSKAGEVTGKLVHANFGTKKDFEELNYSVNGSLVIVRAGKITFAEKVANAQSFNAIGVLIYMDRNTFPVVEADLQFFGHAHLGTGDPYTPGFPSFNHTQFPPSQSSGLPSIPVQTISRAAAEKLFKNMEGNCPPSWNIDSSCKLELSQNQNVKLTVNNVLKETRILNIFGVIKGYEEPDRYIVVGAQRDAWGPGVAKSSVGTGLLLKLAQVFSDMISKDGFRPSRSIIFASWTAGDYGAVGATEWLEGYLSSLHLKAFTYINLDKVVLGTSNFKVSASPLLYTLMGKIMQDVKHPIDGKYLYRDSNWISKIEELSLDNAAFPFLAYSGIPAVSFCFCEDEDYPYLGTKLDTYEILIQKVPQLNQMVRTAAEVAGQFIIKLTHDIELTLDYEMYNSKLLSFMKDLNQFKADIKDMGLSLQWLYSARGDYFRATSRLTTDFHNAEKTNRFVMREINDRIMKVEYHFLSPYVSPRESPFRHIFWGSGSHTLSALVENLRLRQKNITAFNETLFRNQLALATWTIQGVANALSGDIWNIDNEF
Experimental: as §1, §2

[6] = molecular target: T5, cynomolgus TfR-1 (transferrin receptor 1), purified recombinant (cynomolgus, UniProt H9EXL1 89-760 (rhesus entry)); test: as above
T5 construct: also called cTfR1
T5 sequence (chain, as listed by the source): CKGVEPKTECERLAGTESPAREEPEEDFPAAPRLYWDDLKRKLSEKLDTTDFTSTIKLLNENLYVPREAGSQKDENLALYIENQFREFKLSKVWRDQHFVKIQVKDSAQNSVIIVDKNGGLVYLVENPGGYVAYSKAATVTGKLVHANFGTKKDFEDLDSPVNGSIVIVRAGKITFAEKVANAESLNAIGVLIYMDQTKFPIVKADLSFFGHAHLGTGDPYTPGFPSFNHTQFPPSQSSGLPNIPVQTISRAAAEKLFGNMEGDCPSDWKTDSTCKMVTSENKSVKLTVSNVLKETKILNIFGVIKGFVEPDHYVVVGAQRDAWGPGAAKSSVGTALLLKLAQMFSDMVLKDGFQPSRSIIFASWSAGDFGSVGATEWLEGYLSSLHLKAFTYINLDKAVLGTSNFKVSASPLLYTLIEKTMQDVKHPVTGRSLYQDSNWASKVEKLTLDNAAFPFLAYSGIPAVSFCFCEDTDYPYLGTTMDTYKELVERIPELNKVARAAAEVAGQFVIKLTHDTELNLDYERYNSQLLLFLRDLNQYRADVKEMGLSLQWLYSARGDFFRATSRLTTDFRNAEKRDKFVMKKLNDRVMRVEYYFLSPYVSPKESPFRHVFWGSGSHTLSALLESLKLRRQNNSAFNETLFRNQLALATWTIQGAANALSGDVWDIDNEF
Experimental: as §1, §2

[7] = molecular target: T2, human TfR-1 (transferrin receptor 1), …; test: kinetic ELISA on coated recombinant TfR-1, anti-human Fc-HRP detection, Vmax at 370 nm
Experimental: as §1, §2

[8] = molecular target: T3, mouse TfR-1 (transferrin receptor 1), …; test: as above
Experimental: as §1, §2

[9] = molecular target: T4, rat TfR-1 (transferrin receptor 1), …; test: as above
Experimental: as §1, §2

[10] = molecular target: T5, cynomolgus TfR-1 (transferrin receptor …); test: as above
Experimental: as §1, §2

Sequence of human TrkB receptor (overexpressed on TrkB-NFAT-bla CHO-K1 reporter cells) (Q16620 32-822): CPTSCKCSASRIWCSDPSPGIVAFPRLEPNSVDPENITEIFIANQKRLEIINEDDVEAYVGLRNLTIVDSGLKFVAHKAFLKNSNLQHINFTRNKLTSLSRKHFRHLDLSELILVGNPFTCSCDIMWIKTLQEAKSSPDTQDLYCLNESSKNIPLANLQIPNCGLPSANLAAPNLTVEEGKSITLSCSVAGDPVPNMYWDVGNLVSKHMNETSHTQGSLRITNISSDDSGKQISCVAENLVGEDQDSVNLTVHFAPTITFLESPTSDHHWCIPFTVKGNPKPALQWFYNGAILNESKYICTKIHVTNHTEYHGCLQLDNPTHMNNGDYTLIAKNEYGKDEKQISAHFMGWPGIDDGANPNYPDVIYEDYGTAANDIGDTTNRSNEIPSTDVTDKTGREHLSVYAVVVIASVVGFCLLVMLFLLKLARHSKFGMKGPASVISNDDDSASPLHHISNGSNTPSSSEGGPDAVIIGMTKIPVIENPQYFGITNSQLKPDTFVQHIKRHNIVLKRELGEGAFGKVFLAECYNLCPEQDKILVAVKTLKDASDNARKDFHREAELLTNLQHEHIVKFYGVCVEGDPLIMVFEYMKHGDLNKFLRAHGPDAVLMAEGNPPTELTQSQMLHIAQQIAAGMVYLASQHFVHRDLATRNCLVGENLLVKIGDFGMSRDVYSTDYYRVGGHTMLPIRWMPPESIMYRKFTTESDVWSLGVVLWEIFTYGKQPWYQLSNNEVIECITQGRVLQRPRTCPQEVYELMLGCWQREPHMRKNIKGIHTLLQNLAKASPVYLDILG
T1 sequence (P02768 25-609 limits assumed): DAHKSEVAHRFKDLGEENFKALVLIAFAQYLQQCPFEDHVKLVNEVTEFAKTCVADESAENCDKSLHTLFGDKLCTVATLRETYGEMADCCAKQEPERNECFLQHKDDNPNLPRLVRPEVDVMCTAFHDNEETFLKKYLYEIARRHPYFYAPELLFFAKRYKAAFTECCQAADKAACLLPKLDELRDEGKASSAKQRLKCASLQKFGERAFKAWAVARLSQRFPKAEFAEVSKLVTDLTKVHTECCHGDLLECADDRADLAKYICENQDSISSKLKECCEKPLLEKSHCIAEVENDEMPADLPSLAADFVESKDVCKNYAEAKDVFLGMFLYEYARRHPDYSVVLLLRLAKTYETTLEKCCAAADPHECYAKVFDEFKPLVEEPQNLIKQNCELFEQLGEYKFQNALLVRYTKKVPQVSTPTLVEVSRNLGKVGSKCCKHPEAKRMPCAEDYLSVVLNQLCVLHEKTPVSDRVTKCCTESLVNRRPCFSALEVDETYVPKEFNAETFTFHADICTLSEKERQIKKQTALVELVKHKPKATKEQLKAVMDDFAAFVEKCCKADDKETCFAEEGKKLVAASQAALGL

| maximal reporter response as percentage of the BDNF response (TrkB-NFAT-bla CHO-K1 cells) [1] | binding result [2] | binding result [3] | binding result [4] | binding result [5] | binding result [6] | agonist activity relative to TrkB(HV2N) (TrkB-NFAT-bla CHO-K1 cells) [1] | EC50 [7] | EC50 [8] | EC50 [9] | EC50 [10] | Binder |
| --- | --- | --- | --- | --- | --- | --- | --- | --- | --- | --- | --- |
| ~50% | no binding | no binding | no binding | no binding | no binding | – | – | – | – | – | unconjugated TrkB-AAb (mouse-human chimeric 29D7 TrkB agonist antibody, human IgG1 LALA / human kappa) (antibody, V domains shown, VH and VL of mouse 29D7 fused to human IgG1 and human kappa constant regions; Copies of 2 are inferred from the IgG1 format; also called unconjugated TrkB antibody; TrkB 29D7) VH: EVQLQQSGPELVKPGASMKISCKTSGYSFTAYFMNWVKQSHGKSLEWIGRINPNNGDTFYTQKFKGKATLTVDKSSNTAHMELLSLTSEDSAIYYCGRRDYFGAMDYWGQGTSVTVSS VL: AIVLIQSPATLSVTPGDSVSLSCRASQTISNNLHWYQQKSHESPRLLIKSASLAISGIPSRFSGSGSGTDFTLSISSVETEDFGMYFCQQSNSWPNTFGGGTKLEIKR |
| ~50% | no binding | – | – | – | – | ~7 fold less than TrkB(HV2N) | 0.74 nM | 0.63 nM | 4.03 nM | 0.79 nM | TrkB(HC2N) conjugate (TXB4 VNAR fused to the N-terminus of the TrkB antibody heavy chain via a 3xG4S linker) (bispecific antibody, human IgG1, kappa, L234A L235A, Copies of 2 are inferred from the IgG1 format; also called TXB4-TrkB-AAb conjugate) light: AIVLIQSPATLSVTPGDSVSLSCRASQTISNNLHWYQQKSHESPRLLIKSASLAISGIPSRFSGSGSGTDFTLSISSVETEDFGMYFCQQSNSWPNTFGGGTKLEIKRTVAAPSVFIFPPSDEQLKSGTASVVCLLNNFYPREAKVQWKVDNALQSGNSQESVTEQDSKDSTYSLSSTLTLSKADYEKHKVYACEVTHQGLSSPVTKSFNRGEC heavy: not shown |
| ~50% | no binding | – | – | – | – | – | 5.3 nM | 5.07 nM | 61 nM | 2.04 nM | TrkB(HV2N) conjugate (TXB4 VNAR inserted between the CH1 and Fc domains of the TrkB antibody heavy chain) (bispecific antibody, IgG1, Copies of 2 are inferred from the IgG1 format; also called TrkB1-TXB4; TXB4-TrkB-AAb conjugate) light: AIVLIQSPATLSVTPGDSVSLSCRASQTISNNLHWYQQKSHESPRLLIKSASLAISGIPSRFSGSGSGTDFTLSISSVETEDFGMYFCQQSNSWPNTFGGGTKLEIKRTVAAPSVFIFPPSDEQLKSGTASVVCLLNNFYPREAKVQWKVDNALQSGNSQESVTEQDSKDSTYSLSSTLTLSKADYEKHKVYACEVTHQGLSSPVTKSFNRGEC heavy: not shown |
| – | no binding | – | – | – | – | – | 0.78 nM | 0.54 nM | 1.37 nM | 1 nM | VNAR-Fc control conjugate (TXB4 fused to the N-terminal end of the Fc domain) (Fc fusion, also called control VNAR-Fc fusion; not shown: Fc domain) ARVDQTPQTITKETGESLTINCVLRDSNCALSSTYWYRKKSGSTNEENISKGGRYVETVNSGSKSFSLRINDLTVEDSGTYRCNVVQYPQYPNYFWCDVYGDGTAVTVNA |
